Assay in all cases: cell-based or functional assay
Assay [1] deals with envelope of standard panel pseudotyped virus SVPB5 (HIV-1 subtype B).
Assay [2] deals with envelope of HIV-1 strain BaL (HIV-1 strain BaL).
Assay [3] has as its target envelope of standard panel pseudotyped virus SVPB17 (HIV-1 subtype B).
Assay [4] addresses envelope of HIV-1 strain JR-FL (JRFLwt), on virus (HIV-1 strain JR-FL).
Assay [5] has as its target envelope of HIV-1 strain JRFLGPER
Assay [6] concerns the target envelope of HIV-1 strain 89.6 (HIV-1 strain 89.6) (UniProt Q73372).
Assay [7] concerns the target envelope of standard panel pseudotyped virus SVPB14 (HIV-1 subtype B).
The target in assay [8] is envelope of standard panel pseudotyped virus SVPB8 (HIV-1 subtype B).
Assay [9] addresses envelope of standard panel pseudotyped virus SVPB16 (HIV-1 subtype B).
For assay [10], the target named is envelope of HIV-1 strain SF162 (HIV-1 strain SF162) (UniProt P19550).
Assay [11] addresses envelope of standard panel pseudotyped virus SVPB13 (HIV-1 subtype B).
In assay [12] the target is envelope of standard panel pseudotyped virus SVPB18 (HIV-1 subtype B).
Assay [13] has as its target envelope of HIV-1 strain IIIB (HIV-1 strain IIIB).
Assay [14] addresses envelope of standard panel pseudotyped virus SVPB15 (HIV-1 subtype B).
The target of assay [15] is envelope of HIV-2 strain ROD (HIV-2 strain ROD) (UniProt P04577).
Chain of envelope of HIV-2 strain ROD (HIV-2 strain ROD) (P04577 20-858): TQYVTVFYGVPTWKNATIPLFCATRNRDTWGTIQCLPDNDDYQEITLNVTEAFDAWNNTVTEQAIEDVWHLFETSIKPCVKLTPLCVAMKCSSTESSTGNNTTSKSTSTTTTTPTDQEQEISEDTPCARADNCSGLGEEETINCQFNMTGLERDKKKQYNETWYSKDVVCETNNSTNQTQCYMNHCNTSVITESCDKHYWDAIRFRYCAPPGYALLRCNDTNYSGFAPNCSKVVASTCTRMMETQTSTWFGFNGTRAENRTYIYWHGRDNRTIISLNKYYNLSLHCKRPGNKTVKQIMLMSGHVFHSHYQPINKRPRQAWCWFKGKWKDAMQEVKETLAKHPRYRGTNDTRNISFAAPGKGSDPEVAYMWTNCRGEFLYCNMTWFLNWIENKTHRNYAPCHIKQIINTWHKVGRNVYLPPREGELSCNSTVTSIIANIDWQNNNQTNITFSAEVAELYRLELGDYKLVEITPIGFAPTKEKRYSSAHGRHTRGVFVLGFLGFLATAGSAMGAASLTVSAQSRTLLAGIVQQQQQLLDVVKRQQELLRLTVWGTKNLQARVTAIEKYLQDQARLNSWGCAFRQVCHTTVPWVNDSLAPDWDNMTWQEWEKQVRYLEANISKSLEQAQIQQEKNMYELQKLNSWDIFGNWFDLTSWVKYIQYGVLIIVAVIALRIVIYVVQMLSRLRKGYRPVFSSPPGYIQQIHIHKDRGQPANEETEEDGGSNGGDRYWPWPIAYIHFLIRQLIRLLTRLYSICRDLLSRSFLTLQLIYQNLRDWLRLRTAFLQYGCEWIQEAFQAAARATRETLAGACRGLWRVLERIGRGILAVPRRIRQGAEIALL
The target in assay [16] is envelope of HIV-2 strain EHO (HIV-2 strain EHO).
Assay [17] addresses envelope of standard panel pseudotyped virus SVPB6 (HIV-1 subtype B).
In assay [18] the target is envelope of standard panel pseudotyped virus SVPB12 (HIV-1 subtype B).
In assay [19] the target is envelope of HIV-1 strain YU2 (HIV-1 strain YU2) (UniProt P35961).
Chain of envelope of HIV-1 strain YU2 (HIV-1 strain YU2) (P35961 32-843): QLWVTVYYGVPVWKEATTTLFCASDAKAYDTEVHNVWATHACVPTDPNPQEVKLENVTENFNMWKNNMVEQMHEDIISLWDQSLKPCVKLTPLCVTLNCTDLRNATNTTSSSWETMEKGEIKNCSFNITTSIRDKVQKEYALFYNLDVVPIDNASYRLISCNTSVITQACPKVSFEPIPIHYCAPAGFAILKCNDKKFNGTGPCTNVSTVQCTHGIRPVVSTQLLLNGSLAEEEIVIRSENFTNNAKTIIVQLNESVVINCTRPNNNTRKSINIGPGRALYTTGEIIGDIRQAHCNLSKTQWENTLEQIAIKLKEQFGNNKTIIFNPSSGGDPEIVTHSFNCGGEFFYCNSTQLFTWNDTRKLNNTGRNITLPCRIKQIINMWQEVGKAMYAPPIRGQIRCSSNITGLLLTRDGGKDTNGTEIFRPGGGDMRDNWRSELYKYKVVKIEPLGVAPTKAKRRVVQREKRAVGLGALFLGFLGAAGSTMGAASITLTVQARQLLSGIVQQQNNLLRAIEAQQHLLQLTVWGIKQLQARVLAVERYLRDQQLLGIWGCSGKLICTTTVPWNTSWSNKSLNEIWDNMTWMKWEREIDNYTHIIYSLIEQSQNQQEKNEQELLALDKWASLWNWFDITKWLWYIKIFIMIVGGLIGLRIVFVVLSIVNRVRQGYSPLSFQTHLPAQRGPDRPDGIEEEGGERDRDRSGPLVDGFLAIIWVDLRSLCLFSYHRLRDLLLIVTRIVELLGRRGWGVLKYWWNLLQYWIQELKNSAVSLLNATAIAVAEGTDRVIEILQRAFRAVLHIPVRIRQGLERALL
Assay [20] addresses envelope of standard panel pseudotyped virus SVPB11 (HIV-1 subtype B).

A value given as a limit tells only on which side of the number the result lay.

With KD-247 (antibody), the IC50 in TZM-bl cells in assay [1] was 1.8 µg/mL; in assay [3] it was 17 µg/mL; in assay [7], > 50 µg/mL; in assay [8], > 50 µg/mL; in [9], > 50 µg/mL; in [11], > 50 µg/mL. Moreover, the IC50 in TZM-bl cells in [12] was 28 µg/mL; in assay [14] it was > 50 µg/mL; in [17], > 50 µg/mL; in assay [18] it was > 50 µg/mL; in assay [20] it was > 50 µg/mL. For the same substance, the IC50, neutralizing activity (MTT assay) is 3.8 µg/mL in assay [2]; 12 µg/mL in assay [4]; > 50 µg/mL in [5]; 4.2 µg/mL in [6]; 0.21 µg/mL in assay [10]; > 50 µg/mL in assay [13]. The IC50, neutralizing activity (MTT assay) in assay [15], in assay [16] and in assay [19] was > 50 µg/mL in each case.

The values above are taken from patent publication US20110044995A1.
